Results reported in patent US20210040161A1 (CALIFORNIA INSTITUTE OF TECHNOLOGY, published 2021).
Changes are numbered by the printed parent chain. Names may count otherwise.

T1: TlpA_CC R179E (G1B)
T1 construct: Purified coiled-coil domain of TlpA used for CD; The entry already holds the initiating Met, the R179E mutation (numbered on full-length TlpA), C-terminal Leu-Gly and a His6 tag; also called TlpA-G1B (R179E); R179E variant
T1 chain: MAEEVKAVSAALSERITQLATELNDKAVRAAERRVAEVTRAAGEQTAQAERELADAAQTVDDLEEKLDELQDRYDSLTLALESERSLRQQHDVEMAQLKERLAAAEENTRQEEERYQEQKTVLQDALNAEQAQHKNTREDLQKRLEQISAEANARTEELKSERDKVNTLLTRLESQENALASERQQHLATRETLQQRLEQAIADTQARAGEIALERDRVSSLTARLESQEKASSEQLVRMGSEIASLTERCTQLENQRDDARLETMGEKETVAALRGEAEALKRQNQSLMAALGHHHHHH

B1: wild-type TlpA, full length, C-terminal HA tag (crosslinking construct) (other)
chain: MRPATYEPEQIIEAGLALQAEGRNITGFALRNQVGGGNPTRLRQIWDEYQASQSTVVTEPVAELPVEVAEEVKAVSAALSERITQLATELNDKAVRAAERRVAEVTRAAGEQTAQAERELADAAQTVDDLEEKLDELQDRYDSLTLALESERSLRQQHDVEMAQLKERLAAAEENTRQREERYQEQKTVLQDALNAEQAQHKNTREDLQKRLEQISAEANARTEELKSERDKVNTLLTRLESQENALASERQQHLATRETLQQRLEQAIADTQARAGEIALERDRVSSLTARLESQEKASSEQLVRMGSEIASLTERCTQLENQRDDARLETMGEKETVAALRGEAEALKRQNQSLMAALSGNKQTGGQNA
notes: also called wt; not shown: C-terminal HA tag
B2: TlpA_CC E180R (G1A) (designed binder)
chain: T1 chain with E112R, E113R
notes: Purified coiled-coil domain of TlpA used for CD; The entry already holds the initiating Met, the E180R mutation (numbered on full-length TlpA), C-terminal Leu-Gly and a His6 tag; also called TlpA-G1A (E180R); E180R variant

How the values were obtained:
[1] = target: the molecule itself; test: CuCl2 crosslinking in E. coli lysate, SDS-PAGE, anti-HA Western; full-length homodimer band
TlpA_CC R179E (G1B) = target: T1, TlpA_CC R179E (G1B); test: CD melting curve at 222 nm, purified coiled-coil domains, 3 uM in PBS

Row | Binder | binding result [1] | binding result (TlpA_CC R179E (G1B))
1 | B1 | binds | 
2 | B2 |  | binds
